Laboratory results from the supplement of paper PMC12042874.
± gives the uncertainty stated by the source.

assay: amyloid nucleation score (Sup35N fusion, yeast selection) (log enrichment); library NNK3; higher = more nucleation; inactive = no reads after selection
In short: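 The nucleation score equals the log enrichment of output over input reads from DiMSum, centred on the mode score of non-aggregating sequences. It was computed only for sequences with 100 or more input reads. The reads came from Illumina sequencing of plasmid inserts from psi-negative yeast expressing Sup35N fused to peptides of 20 random codons, induced with 100 μM copper sulfate for 24 hours and grown 7 days at 30°C without adenine and uracil.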

Amyloid nucleation score, -0.483 ± 0.61:
WYVCRSGVCGHALIALATRR

Amyloid nucleation score, 2.47 ± 0.088:
YINLFLLSGSFVFRVDHHFI

Amyloid nucleation score, 0.938 ± 0.19:
FRIIQVVRYDMMGTRLDMYQ

Amyloid nucleation score, inactive:
LDGTGCDGPLARKNCGRNAV
RCTVSTSGSGGFCPVPRSGM
ALLYRERKYSMLVKFVVYRS
RTWIRAYVSMQFRMCQDTDV
MVCWANKHWYSSHLLYDSVY
YAFVCSDV
LQTVNLLVPACI
VFDSCRTFSMYTDLLGWEWR
IFLAGDMC
SFHASGQSSLYKKGDLSTCV
DSCKPCQKPTAIHVYMVEFP
LWWCTLYSILYGTLSTYSCS
DDPQVGLNFAQSYALPEYFA
MWVQEYKTNNGYSLA
YESRGEGVMPSTQLWMSRLG
SNIRYRNFRSGFFIQWLHTG
IQDHYSDPAN
FGYPMPIRNVSVVPVLFYKG
PMYPGIVGSRAIMQRLVGCC
CANFRV
GTLYAKSVRNKGSS
DSSFLATFFILVTGCCLLVD
KFSSMGTVSLSGKSLYSDAV
VIGAFRLYNFNVALISSNIS
EVQVFSFDTGCMHSHNLYAS
SPQLNCEANWKVFCWAGMDP
SFGILVYIRTAMPCTNIANY
SLDKLAFRD
YLFEYSEV
IMLKGS
LDSAYRTVDGSICTTSYREH
RFACFSRGACFCNRLVMPYD
TYMTYERVYL
DFVRVEMNYLDENDGGCYL
ALSVFRGLCVLENFSKISGC
FPFLSSSSDSSEMFILKLFD
NFFMGLLSSRSMGLTWYWCM
IPCLQVYFTSTPNPSWSHGH
FLCMSLATRMLTFRLFPTNL
RNKLALVLKLAHSI
SLMEGYSFSVPRSASRCSSQ
ETLGFVSMCHDSLMHNH
RLVVNQHSPDKP
AYKYVTVCLVDSSVLTSNRG
HRIRVVENLPHCVLSSRMPL
FLIWGKQPWTRKLLGTIVPV
VQLFSQNALPMFNSWKYYDH
SFRSAVRCTS
PTTCSNFSAYWNVCDPHNIS
FTCPASST
CLWFISRQFDLYHRVMGNRS
KSALYADLVGYLGSACMGSR
SYYPRIRRLGWECSWTPMLQ
IMSVRIGSLGVMSHWSLYSY
IFYVCRIIWCTERQVGKLGL
CSYRCYSLGCNMQIV
IWIMLHSCELWYADKADLDG
YIEAMNAGLPGEPARYFVVS
GDNRFLYELFLPHLNVVSNL
VFLNQCLSGVMGLEGVSLDR
DCHLPKIKYFAITYFCFFRR
IKFVPRA
MSEKASSEVKINRDAGLGAF
RSKSF
SAYSSGLRSKAYLYTASCTP
AGWCYFASSVLVRTSWSQCA
SSRINWSASLNSLTVTVD
FFCSSTPKSWMCKQTL
VIIPNFWLFEGLRAGKRRG
ARVLDAWSYRVARKNLWESL
YVYGKNGARGDSIREMGPSE
SINGRDSQG
CFMHPADIPSMAVVVYLCAG
RLFLTVHPTDSILENEAV
KTPLSSSCRKILIINTPRGM
ILTLTSRPLLLNLKKPFWVF
NVSPIGQISVNYGRMDCSEG
RMLDG
STRAVQIRKSRGFAGYPGN
PCYCSFVSRSYYCKDYVRNS
GVSILCLVLWSMWTLGGESW
VWRRKKAGAHYREDVSNYPQ
CLLCGSRHFRHRLGFVSYRI
FDSQGEPVPKPSAMMRGRMC
QVILKNMGPNIVSYGLG
YIISRFYMAVWGDKPLYTGL
HCFIDNKMLPYVMCYPDKKR
CGTCSDYGYHFGCTDRGVDC
AVYSWCARTYSILSTLRGEF
LYGISL
RQILSFWP
LTVLFTVCWVGTRAYGLIGG
GKCVGEPPAQSEKTWRNGSL
EPYPM
TDIAPLAGGITSSDNIVRTK
DSYIVYDKQDPS
CFNGRCARLYISIIQVIELS
SWWKDLVYD
RMTVKQMLYHDWCTVRPSYC
NYVLRTSVVL
TRMEICCKGYKGNVPKFAVY
QGLSCDFRVLLLIYRSCGRG
PTRNYCLLVKDY
FSCPDLGRGYVIS
NPFRGFLTIQCRPILRFPDK
YPLFMDYMLTCVHM
VKTWCYRCCSGALSLS
RSIHYSYWCIYGNIRDTVRS
FYRFFDSV
NWRLCFNRGRCRYMIMLQKF
LQSCSCAGLFPDL
ITNFIRWNTNV
FNTRQSNLKDDMVSFHDSDL
LLWLKL
LDAYLWNNCMYVYHLEPYSW
FFTMSKI
VGNGYTMSG
VIRVKSSCLVLLEHKLLACG
CCRSWRSYSTVVFICGFLYW
NSCLV
IKIMHLSQPMDSMSLLHHG
GMVMVLQTTRYNCHMMRELQ
WQITTRTIDRPHYKHPGVPL

Amyloid nucleation score, 0.453 ± 0.35:
GYTVAKVNFNGWNRL

Amyloid nucleation score, 0.705 ± 0.21:
NFRPEKHINLMVCKSLPFV

Amyloid nucleation score, 1.38 ± 0.11:
ISFNFHSSSTGRA

Amyloid nucleation score, 0.671 ± 0.19:
WYLMCWCCLKVPVAQLM

Amyloid nucleation score, 1.93 ± 0.096:
YVSHVSISVSSMLCYGGQSW

Amyloid nucleation score, -0.448 ± 1.8:
KWGIGMGPSHSGLISWGHNE

Amyloid nucleation score, 3.11 ± 0.058:
AFSFPSERVWVWNFHMRDKE

Amyloid nucleation score, 0.253 ± 0.6:
SLWNDFMCQSCLGVIVNGAA

Amyloid nucleation score, 2.55 ± 0.069:
VYNCAMVCPNLIFWSFATGL

Amyloid nucleation score, 1.33 ± 0.16:
WGCYSWTMVRS

Amyloid nucleation score, -0.117 ± 1.1:
LKGVKCVHSCWELPR

Amyloid nucleation score, -0.342 ± 0.98:
IEYWFASRTFWSCRNMVRH

Amyloid nucleation score, 1.33 ± 0.11:
VVMIPNIFCDWRGNGNNQCG

Amyloid nucleation score, 1.13 ± 0.11:
NMILFISCEIPGRGVFGRCC

Amyloid nucleation score, 1.1 ± 0.11:
KLQHIFLFFDRS

Amyloid nucleation score, -0.057 ± 0.81:
FSPRKSLASLGITVVVDHCI

Amyloid nucleation score, -0.38 ± 0.88:
LQPGMDFSCRFKRLTLNMVH

Amyloid nucleation score, 1.32 ± 0.16:
YLVTIILI

Amyloid nucleation score, -0.521 ± 1:
GPNDLSMAFRTLYDQAVPYV

Amyloid nucleation score, 0.142 ± 0.32:
NKYYVRSSFELVIVYA

Amyloid nucleation score, -0.474 ± 1:
SCFSSYCRYNLRLSWRQNFV

Amyloid nucleation score, 0.743 ± 0.17:
NDFCLIYYICGS

Amyloid nucleation score, -0.772 ± 0.8:
HYRIESTVLE

Amyloid nucleation score, -0.021 ± 0.85:
SQYIWFFSVVLSFFSSVSWC

Amyloid nucleation score, -0.044 ± 0.39:
RSPEDFSGTCHAGRCSWVHG

Amyloid nucleation score, 1.93 ± 0.06:
LSIYGDPAYCALFAYECLWL

Amyloid nucleation score, 0.761 ± 0.17:
RGESHVCLCYL

Amyloid nucleation score, 2.58 ± 0.059:
TYSIISENIVVFFNRM

Amyloid nucleation score, 2.64 ± 0.059:
SCFQQGNFWCSVFFNVGGQL

Amyloid nucleation score, 1.05 ± 0.17:
ITCLNMTWSTAGQWLCVSFT

Amyloid nucleation score, 2.22 ± 0.061:
ILVCCISVETTHDNGPEVVG

Amyloid nucleation score, 1.44 ± 0.086:
YRANINRVLVFQLN
